For assay [1], the target named is SF370 bacterial surface (Streptococcus pyogenes strain SF370 (emm1 serotype)). In words: binding to SF370 bacteria, fitted binding curve; unit printed nM-1; ±261; non-specific control IgG (Fc binding).
Assay [2] concerns the target T1, M1 protein on the surface of Streptococcus pyogenes strain SF370 (Streptococcus pyogenes strain SF370 …).
T1 chain: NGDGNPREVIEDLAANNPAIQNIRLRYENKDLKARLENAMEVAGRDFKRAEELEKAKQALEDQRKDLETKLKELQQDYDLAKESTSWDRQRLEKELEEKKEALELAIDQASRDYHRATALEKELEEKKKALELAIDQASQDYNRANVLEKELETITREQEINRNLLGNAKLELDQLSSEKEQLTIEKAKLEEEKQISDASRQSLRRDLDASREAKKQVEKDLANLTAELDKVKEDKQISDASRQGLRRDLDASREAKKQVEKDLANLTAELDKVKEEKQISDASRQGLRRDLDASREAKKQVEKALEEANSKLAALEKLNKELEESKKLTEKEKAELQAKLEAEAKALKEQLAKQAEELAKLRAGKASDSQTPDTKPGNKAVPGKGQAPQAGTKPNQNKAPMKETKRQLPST
The assay can be described thus: binding to SF370 bacteria, fitted binding curve; unit printed nM-1; ±2.9; F(ab')2.

In assay [3] the target is T1, M1 protein on the surface of …. The assay can be described thus: binding to SF370 bacteria, fitted binding curve; unit printed nM-1; ±30.3; Fab.
Assay [4] shares this target. In words: binding to SF370 bacteria, fitted binding curve; unit printed nM-1; ±1.2; F(ab')2.
Assay [5] shares this target. The description is as above.

Usually Kd stands for the equilibrium constant for the complex coming apart. Low values mean tighter binding, high ones weaker binding.

As to Xolair IgG, in assay [1], the dissociation constant (Kd) worked out at 3170 nM.

B1: Ab32 F(ab')2 fragments (IdeS-cleaved Ab32) (antibody, V domains shown)
VH: EVQLVESGGGLVRPGGSLRLSCVASGFMFNEYYMSWIRQAPGKGLEWISFISNAGTYTNYAESVKGRFTISRDNAKDSLYLEMNSLRGEDTAVYYCARQGFDTRGEDAFEIWGQGTMVTVSS
VL: EIVLTQSPATLSLSPGERATLSCRASQPLSGYLAWYQQKPGQAPRLLIYNASKRATGIPARFTGSGSGTDFTLTISSLESEDFAVYYCQQRSGWPSIFTFGPGTKVDIKR
B1 yielded a Kd in assay [2] of 9.1 nM.

B2: Ab49 single Fabs (IgdE-cleaved Ab49) (Fab, V domains shown)
VH: EVQLVESGGGLVQPGGSLRLSCAASGFTVSINYMSWVRQAPGKGLQWVSVIYSGGSTYYADSVKGRFTISRDNSKNTLYLQMNSLRAEDTAMYYCVRDSRFWGIFDYWGQGTLVTVSS
VL: EIVLTQSPATLSLSPGERATLSCRASQSVSSYLAWYQRKPGQAPRLLIYDASNRATGIPARFSGSGSGTDFTLTISSLEPEDFAVYYCQQRSNWPPTFGQGTKVEIKR
Consider B2, for which the affinity in assay [3], expressed as Kd, was 208 nM.

B3: Ab49 F(ab')2 fragments (IdeS-cleaved Ab49) (antibody, V domains shown)
VH: EVQLVESGGGLVQPGGSLRLSCAASGFTVSINYMSWVRQAPGKGLQWVSVIYSGGSTYYADSVKGRFTISRDNSKNTLYLQMNSLRAEDTAMYYCVRDSRFWGIFDYWGQGTLVTVSS
VL: EIVLTQSPATLSLSPGERATLSCRASQSVSSYLAWYQRKPGQAPRLLIYDASNRATGIPARFSGSGSGTDFTLTISSLEPEDFAVYYCQQRSNWPPTFGQGTKVEIKR
Turning to B3, the Kd in assay [4] and in assay [5] was 12.3 nM each time.

The record behind these values is US20240010712A1 (published 2024).
